In the experiment the target is T1, hPDGFRb.mmh (human, UniProt P09619 33-531).
T1 construct: Soluble monomeric construct; also called soluble human PDGFR-beta.mmh
Nature of the experiment: Octet BLI cross-competition, 25 C; hPDGFRb.mmh on anti-Penta-His tips pre-saturated with mAb-1 H4H3305N (row 8). In a few lines: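 PDGFR-beta.mmh-coated sensor tips were saturated for 5 min with a first antibody at 50 μg/mL, then exposed to a second anti-PDGFR-beta antibody. Real-time binding of the second antibody to the pre-complexed receptor was monitored in HBST buffer, shaking at 1000 rpm.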
For orientation: BLI is a label-free optical method that tracks binding on a fibre tip over time.

Two molecules from US20170210813A1 (Regeneron, published 2017) can be followed below.

B1: H4H3374N (antibody, human IgG4, V domains shown)
VH: QLQLQESGPGLVKPSETLSLTCTVSGGSITSSSYYWGWIRQPPGKGLEWIGSIYYRGSTNYNPSLKSRVTISVDSSKNQFYLKVSSVTAVDTAVYYCARQNGAARPSWFDPWGQGTLVTVSS
VL: EIVLTQSPDTISLSPGERATLSCRASQSISSIYLAWYQQKPGQAPRLLIYGASSRVTGIPDRFSVSGSGTDFTLTISRLEPEDFAVYYCQHYGISPFTFGPGTKVDIR
notes: human IgG4 Fc (H4H prefix)
B1: the “Response of mAb-2 Binding to hPDGFRβ.mmh Pre-Complexed with mAb-1 (nm)” value turned out to be 0.27 nm.

B2: H4H3094P (antibody, human IgG4, V domains shown)
VH: EVQLVESGGGLVQPGGSLRLSCAASGFTFSSYWMSWVRQAPGKGLEWVANMNQDGSETHYVDSVKGRLSISRDNAKKSLFLHMNSLRAEDTAVYFCARDLVPPRQDDYYYYFGMDVWGHGTTVTVSS
VL: DIQMTQSPSTLSASVGDRVTITCRASQSISDWLAWYQQKPGKAPKLLIFKASTLESGVPSRFSGSGSGTEFTLTISSLQPDDFATYYCQQYNSYSRTFGQGTKVEIK
notes: also called H4H3394P
As for B2, the “Response of mAb-2 Binding to hPDGFRβ.mmh Pre-Complexed with mAb-1 (nm)” value was determined as 0.25 nm.
